Experimental data published in patent US20100041597A1, “PEPTIDES TARGETED TO PROTEIN KINASE C ISOFORMS AND USES THEREOF” (priority 2005, published 2010).
Each block holds one substance with its values, some of them ahead of it.

Biological target: T1, PKC-ζ (Homo sapiens, UniProt Q05513)
T1 sequence (Q05513 1-592): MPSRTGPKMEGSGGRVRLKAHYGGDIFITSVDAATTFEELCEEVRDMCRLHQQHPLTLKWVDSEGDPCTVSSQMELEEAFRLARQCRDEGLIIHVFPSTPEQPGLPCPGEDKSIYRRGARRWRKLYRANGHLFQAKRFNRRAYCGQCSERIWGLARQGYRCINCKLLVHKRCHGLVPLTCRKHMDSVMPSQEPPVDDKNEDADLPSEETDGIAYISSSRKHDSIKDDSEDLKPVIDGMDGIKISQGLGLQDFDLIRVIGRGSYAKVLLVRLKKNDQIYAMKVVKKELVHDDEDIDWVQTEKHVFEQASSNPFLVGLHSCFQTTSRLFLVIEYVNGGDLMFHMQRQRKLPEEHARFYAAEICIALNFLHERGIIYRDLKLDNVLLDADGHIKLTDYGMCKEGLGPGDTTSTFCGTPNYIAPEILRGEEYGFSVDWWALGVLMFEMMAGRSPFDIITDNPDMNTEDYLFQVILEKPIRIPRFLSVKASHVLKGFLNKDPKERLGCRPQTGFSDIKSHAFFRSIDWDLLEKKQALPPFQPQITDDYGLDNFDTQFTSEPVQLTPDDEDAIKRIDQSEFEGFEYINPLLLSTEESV
Test: ELISA-based competitive binding assay with purified PKC isoform
Parameters: key to Affinity for PKC isoform ζ: —: no detectable affinity; Low to very low affinity at 10X or 20X or both PRE concentrations in at least one cell line in the cell extract assay; Low affinity in purified isoform assay.; Moderate affinity at 10X or 20X or both PRE concentrations in at least one cell line in the cell extract assay.; High affinity at 10X or 20X or both PRE concentrations in at least one cell line in the cell extract assay; High affinity in purified isoform assay
Settings: for calculated binding capacity (100-% n) after subtraction of the DMSO apparent binding capacity / inhibition at 50 µM / inhibition at 100 µM / inhibition at 200 µM: purified PKC-ζ; for Affinity for PKC isoform ζ: Purified isoform, Table 20; for inhibition at 50 µM / inhibition at 100 µM / inhibition at 200 µM: read-out: calculated binding capacity (100-% n) after subtraction of the DMSO apparent binding capacity
Procedure: Peptides PRE 1, 2, 3, 4, 5, 6, 7, 8, 9, 10, 11, 12 and 13 (see Table 3) were tested for their ability to interfere with binding of PKC isoform-specific antibodies to their target PKC isoforms using a competitive binding assay and purified PKC isoforms.
Procedure: Competitive binding was assessed using a 96 well plate ELISA-based assay as described below.
Greiner 96 well ELISA plates were coated with the appropriate PKC isoform diluted in PBSN (PBS with Calcium/Magnesium+0.05% Sodium azide w/w). 50 μL/well at 250 ng/mL was used. Control wells contained PBSN only. Plates were incubated overnight at 4° C.
The plates were washed 3 times with 200 μL of dH2O per well, then 100 μL of blocking solution was added per well and the plate incubated for 1 h at 37° C. The washing steps with dH2O were repeated and 50 μL of the appropriate PRE solution (PRE stock solution [20 mM in DMSO] diluted in PBSN) was added and the plate incubated for 1 h at room temperature.
After incubation, 5 μL of 1.1:400 anti-PKC (isoform specific antibody) was added per well (to provide a final concentration of 1:4000). For PKC-epsilon, 1.1:800 dilution was used and for PKC-zeta a 1.1:100 dilution was used due to high and low binding affinity, respectively. The plates were then incubated 1 h at room temperature, followed by washing with dH2O as described above.
50 μL of 1:1000 dilution of Alkaline Phosphatase (AP) conjugated antibody (anti-rabbit for all except zeta, which was anti-goat) was then added and the plate incubated for 1 h at room temperature. Washing with dH2O was then repeated. Finally, 100 μL of pNPP solution in pNPP buffer (2 mM MgCl2, 100 mM Sodium bicarbonate in water, pH 9.8) was added to all wells and incubated for 8 minutes for α, βI, βII ε, and ζ, or for 15-20 mins for […] (until sufficient coloration is observed). The reaction was stopped by addition of Stop solution (2N NaOH) and the absorbance at 405 nm was read on a Galaxy Plate reader.
Controls were PKC without PRE; blank controls, and controls containing the final concentrations of DMSO used for solubilizing the PREs. The non-specific binding capacity related to DMSO was also measured.
The antibodies used were as follows: anti-PKC α (Cat. No. SC-208); anti-PKC βI (Cat. No. SC-209); anti-PKC βII (Cat. No. SC-210); anti-PKC δ (Cat. No. SC-213); anti-PKC ε (Cat. No. SC-214); anti-PKC ζ (Cat. No. SC-216-G) (all from Santa Cruz Biotechnology, Inc.). The AP-conjugated antibodies were obtained from Jackson Immuno Research Laboratories (West Grove, Pa.).
Calculations: The OD values measured at 405 nm represent the free PKC coated per well.
OD405 PKC alone−Blank OD405 of each sample=OD405 coated isoform
(OD405 of sample X/OD405 coated isoform)×100=% n that represents the percentage of X binding compared to control.
100-% n measures the relative binding capacity of X towards the tested isoform.
The apparent binding capacity of the DMSO samples was then subtracted from X binding capacity.
All measurements were made in triplicate and the values in the table represent the averaged calculated binding capacity values after subtraction of the DMSO apparent binding capacity (averaged from 12 values, respectively 10.80, 11.20 and 16.40 corresponding to the concentrations of DMSO used to dilute the […] at 200, 100 and 50 μM respectively). The results allow for quantitative comparison of the binding capacity of each PRE towards an individual isoform within each table, but not among isoforms due to differences in sensitivity of the specific antibodies toward the secondary antibody. This applies particularly to PKC-delta. As noted above, the colour development duration was increased 2-3 times and, as a result, the OD405 measurements may be overestimated for this isoform.

- calculated binding capacity (100-% n) after subtraction of the DMSO apparent binding capacity (PRE 50 μM): 4.20
- calculated binding capacity (100-% n) after subtraction of the DMSO apparent binding capacity (PRE 100 μM): 8.77
- calculated binding capacity (100-% n) after subtraction of the DMSO apparent binding capacity (PRE 200 μM): 0.33
- Affinity for PKC isoform ζ: —
Substance: Ac-KDAQNLI-NH2 [PRE 12]

- Affinity for PKC isoform ζ: —
Substance: Ac-ISIGILNQADK-NH2 [PRE 10]

- Affinity for PKC isoform ζ: —
Substance: Ac-KDANQLIGISI-NH2 [PRE 6]

- calculated binding capacity (100-% n) after subtraction of the DMSO apparent binding capacity (PRE 50 μM): 4.11
- Affinity for PKC isoform ζ: —
Substance: RRKKGGKDFVVKR [PRE 1]

- Affinity for PKC isoform ζ: —
Substance: Ac-ISIGILQNADK-NH2 [PRE 7]

- inhibition at 50 µM (PRE 50 μM): 0%
- inhibition at 100 µM (PRE 100 μM): 0%
- inhibition at 200 µM (PRE 200 μM): 5.85%
- Affinity for PKC isoform ζ: —
Substance: Ac-KDAQNLIGISI-NH2 [PRE 4, Ac-KDAQNLIGISI-NH2]

- Affinity for PKC isoform ζ: —
Substance: ILEDKGGDAQNLIGISI [PRE 8]

- Affinity for PKC isoform ζ: —
Substance: Ac-RDAQNLIGISI-NH2 [PRE 11]

- inhibition at 50 µM (PRE 50 μM): 0%
- inhibition at 100 µM (PRE 100 μM): 0%
- inhibition at 200 µM (PRE 200 μM): 0%
- Affinity for PKC isoform ζ: —
Substance: Ac-AKGIQEVKGGKDAQNLIGISI-NH2 [PRE 5]

- inhibition at 50 µM (PRE 50 μM): 14%
- inhibition at 100 µM (PRE 100 μM): 23.9%
- inhibition at 200 µM (PRE 200 μM): 29.1%
- Affinity for PKC isoform ζ: H
- targeting of PKC-ζ (purified isoform, Tables 14-19): targeted by PRE 3 only
Substance: Ac-AKGIQEVKGGDAQNLIGISI-NH2 [PRE 3]

- Affinity for PKC isoform ζ: —
Substance: Ac-isigilgnadk-NH2 [PRE 9]

- Affinity for PKC isoform ζ: —
Substance: Ac-RDAQNLI-NH2 [PRE 13]
